Experiment: soluble on expression in E. coli; label from the status in PepcDB or PDB records

Sequence: MGSDKIHHHHHHMLRPHHSDNEQITLRSLLQSYRDQTTSNVVWGKIFEDFVTKYLMHDPLHYGRYEKVESYYEWAKERKDWNKNDIGIDLVAKLRHQESYVAIQCKFYKADHQISKKDIDSFIAESGKKIFKYRLLVDSTEVELSDNVNAMIKGQAIPIYRIDLRHMENSRIDWQTYATKKEVVLKSIKKPLPHQEPTMRPRAWIKAFSALAVASFK
- soluble on expression in E. coli: not soluble

Sequence: MSLFLMDQYIKVDITVEENEQERIMAELLAIGFDSFAEHANMLEAYVEKSAFSEADLKEVLHEVNPAYTYTFAEMPNINWNEEWEKNFDPLVIANQCYVRASFHAERPEFQYEVVINPKMSFGTGHHAEGHHHHHH
- soluble on expression in E. coli: soluble

Sequence: MEERILFSQKTTIFVPVDNDSRIKPMSKDSLCAQHTDCSGCPKAMESTLIHRNLLRGQHIPKDKCTQNCMLFMIEGELLINSDEHPGTTLHEKQFILQAIGSKYEILALTDVSYILFWFNELPLLCENRYREIIDQAEGPLTYTPMVMNPRLFYLINDVAAYLDESTPACGKYIDLKCQEMVYMITNYYPLPQLRAFFYPISTYTESFQYFVMQNYSKAKNVEEFAHLGGYNTTTFRRLFRNLYGVPVYEWMLEKKREGILEDLQHSNMRITEICNRYGFDSLSHLAHFCKDSFGDTPRALRKKAANGEKIGKITD
- soluble on expression in E. coli: not soluble

Sequence: MTVISSHWWRCISLNSKSNRCSSSSGNHLMMGGKKTCVLMRATFMVIATDYEFERRWCRRTGTIAGCHLISKQAEVGEMMCMIEL
- soluble on expression in E. coli: not soluble

Sequence: MGSDKIHHHHHHLNTRDFEYFLALTQTRNFSQTAEQFAVSQPTITTAIKRLEDSFQAQLIIRDRRHHDIGVTSAGKQLAAHAQVILQQLTLAQQEIAWDQTNKIRFGLPPIIGNYFFPKIAPQLIAAGLMPQLQTVEAGSAALLNQIKQGDLDFALLGASGPLQEPDLTISQIGTAPFVIITSESDPLAQKDKVRFAELAMQKFVTLSEAFVHTRAFTWFQQQSAFIPNVVYQTGDVQLLKQMVVQNVGIGFLTNLAINPDDHLAAVKLTDPKQPVFTISIVRRKDRVLTPAMQHFNQILAAN
- soluble on expression in E. coli: not soluble

Sequence: MSTRKLNKVMVQPVNLIFRYLQNRTRVQIWLYEDVTHRLEGYIIGFDEFMNVVFDEAEEVNMKTKGRNKIGRILLKGDNITLIHAAQQEA
- soluble on expression in E. coli: not soluble

Sequence: MSLSDDSMIDAPLTRADAVSEKIVFQDDFNQVDSIPDRNKWSLCKKGSPAWSKYLSESYDQAYVHDGKLVLVAEKVNGVYKTGGVQSLGKAEFQYGKIEICARFTKTAKGGWPAIWMMPAKPVYSGWPACGEIDIMEQLNHDGIVYQTIHSHYKNDLGFTKPVPTKTVSYNKGQFNIFGIEWTPEALTFKVNGATTLVYPNLHLADESVKKQWPFDTSFYLILNYALGGPGTWPGTIMDSELPAKMEIDWVKVSQPRGREGHHHHHH
- soluble on expression in E. coli: soluble

Sequence: MVTPREPKKRTTRKKKDPNAPKRALSAYMFFANENRDIVRSENPDITFGQVGKKLGEKWKALTPEEKQPYEAKAQADKKRYESEKELYNATLA
- soluble on expression in E. coli: soluble

Sequence: MVDFYYLPGSSPCRSVIMTAKAVGVELNKKLLNLQAGEHLKPEFLKINPQHTIPTLVDNGFALWESRAIQVYLVEKYGKTDSLYPKCPKKRAVINQRLYFDMGTLYQSFANYYYPQVFAKAPADPEAFKKIEAAFEFLNTFLEGQDYAAGDSLTVADIALVATVSTFEVAKFEISKYANVNRWYENAKKVTPGWEENWAGCLEFKKYFE
- soluble on expression in E. coli: soluble

Sequence: MSEAIGLIETVGLVAAIEAADAAVKAANVKLIGYELARGSGLTTVKIKGDVGAVKAAVEAGKAAALRVGKVYAVHIIPRPDKQVGFIVGEEKNLTLLMPVIEKEEKEKNDSEPKIKVTEGETIEKREIEQKFEKEDKSEAKEETGEVEEEDDKEGMAYTCNLCKDPGCPRKKGEPRTLCIHYNELKMR
- soluble on expression in E. coli: not soluble

Sequence: AQRDVLAVLPQLNAVQNLAGDAPSWAEGYGLYQGDMLGEESASVYRKLLIAVFAPRLVTRIEEQLRSGGSSDFLYEGLKAYLMLGSPDHYDADFIKAWISLDWERNLPRDLSPEQRQALHAHLDALLERRPPSARLDQDLVEDLRRQLQQLPVAQRVYDRVKRQRLPKDVPDFRISDAAGRDAPLVFARKSGKPLTDPLSGFFTYRGYREVFLTASLSQAGTIAEEQWVLGRDLNDAGDAANLALDVRRLYFQDYLRQWDDLLADLTVVPITNVTQAADVLRILSGPTSPFRKLLEAVARETDLQKGDRLVAAQVKKAADGTVDKLKQRLGSLVGQEEEG
- soluble on expression in E. coli: not soluble

Sequence: MKLLILFSLFAIFFGVIALDSPIPEFYSTGRSTRVPSHRHRIPRLGKREVPNFQADNVPEAGGRVRRYVGPPLKLVILI
- soluble on expression in E. coli: not soluble

Sequence: MILNILRLPHADEPTTSQSVQDYPLVHFSPRRHQKFRTIISVGDSDVIKDSSLTDEELYNIIHASPIARKSSTVSSTDSGYLGSSGASSSCVRSREGSTVSSTITVERTRRGGSTASSEPDSVADSEGAGSYSSFSSIASTASRMLGRAADCLVLMTKRNGWSGDAGSPSDEKGSSLDAQSWTTAIQSALMPVTPQSSVVGGKRIDKLKVPTEGKTRPPY
- soluble on expression in E. coli: not soluble

Sequence: SYHTGTAYGMIDLPRILRSITTFESFGKVKIGILKKGIQAIESLLVARHQMYSAVYMHPTVRIADTMIKRAVIKEIQEKNLDIKDLANMDDIALVSFLRISENYLMERIDRRNLYKNLITYSYFDLNPIEKWIFVNLDEKQILSLESRFYEEFGWDIFIDIYPIPKMEEHNVYIISDEGVKRLDEVSPLAQSLK
- soluble on expression in E. coli: not soluble

Sequence: SAAKALKDLKNLPVSERNIDYKTKLLVGKMNGTAEDKPPQNSVPFDHNHPKGDEIEKPEAERVIVEIEYIESKDLNNVTQVDAVLKSLVTELDSKDWVLVCDALNTIRRLSIFHKEEMLHMLEKVILFIVKSLKNPRSAVSKTACMTSADIFSSYNDHTIDQLDLLLTQLLLKSSQDKRFVCEAAEKALVAMTAHVSPALLLPKLQPFLKNRNPRIRAKASTCFSRCVPRLGIEGIREYGIEKLVQAASSQLSDQLPESREAARAVLLELQTVYKKTTNVEPKEEHPEPVTWQIFCQSNLSPLSAQAVIRVTNVAGVAREGLVAGS
- soluble on expression in E. coli: soluble

Sequence: MSSETITVERSGKVHHAEGDAARLDAYIPSECPQNHAANLLHLPNGDVLCVWFGGTQEGIADISIYMSRLVKDSGSWSKAAKLSEDATRSEQNPVLFLAPDNVLWLLYTAQKSGNQDTAIVRYRQSTDLGATWGEIGTLLDQPGTFIRQPITVLENGDWLLPVFYCRVQPGEKWVGNDDDSAVKISSDQGKTWREYPVPNSTGCVHMNITPLQDGTLLALYRSRWADFIYQSRSTDGGKTWSEPVATDLPNNNSSIQVTTLKNGHLALVFNHMSAADATDRRLSLYDEIEDEEDKASGAKMPEVQAGDRSAFWGAPRAPMTLAISEDGGKSWPYQRNIEVGDGYCMTNNSTEKLNREFSYPSVKQAPDGKLHVAFTYFRQAIKHVVVSEEWVKAGLEHHHHHH
- soluble on expression in E. coli: not soluble

Sequence: MKGGLLVDDEFIHGEERSLTVRKTSLFFAGDGFTVYDCKGSLVFRVDSYGGPNTRDTDEVVLMDAHGRCLLTLRRKRPSLRRRWEGYLGERSDGQKPIFGVRRSSIIGRNSVTVEVYGDYQCSEYLIEGSFGARNCTVVEAETRRKVAEIRRKVDASTNVMLGKDVFSLNVKPGFDGAFAMGLVLVLDQIYGDDLLEVGEEQVHPSAEDL
- soluble on expression in E. coli: not soluble

Sequence: MKRMHNPAHPGEVLREYLGELTVTNAAAKLGVSRVALSRILNGTNGISADMALRLEDALGTSAEMWAAMQFKYDLWVASQQPRPKITRLHV
- soluble on expression in E. coli: not soluble

Sequence: MSLKAIIFDMDGVLVDSMRFQADAWAKAFQDAGINIVREDIYELEGSNDKRLIKSIFKEARKEPEPEHFERLPEKKRDLLEFDRIKPFEGIPECLDELKRHFRLAMVSGSNRNTVGKIVDKFFSGYFDVVINGSDLERGKPDPDPYLKALEMLGLTKNECMVIENAPLGITAAKRAGLYCVAVASMLEPEKVQHADLVLEDHASLFDYLKSLIPGKPQTEGHHHHHH
- soluble on expression in E. coli: soluble

Sequence: MLKKIERAQQLLKKEAAVFRCPTCHEPMHLEGVGLICQQRHQFDLSKKGTLYFLNHGVQTEYNKKMFTSRGKMIQSGMYAPVLNKIMHYLPQNKTVVDVGCGEGSFLAELSQAGLSGLKIGFDLSKEGIYLASNQPIDAFWCVADLTNLPFANEGLDTILNIFSPSHYQEFRRVLKADGTVIKIIPEENYLKELRAAFYPNDEKKQSYSNQKVVQRFAEELAVEVDERITYCFDIPEERRLDLLEMSPLEWQVSQEVKAELQQRPLEKITIDVRLLVGRKR
- soluble on expression in E. coli: not soluble

Sequence: MGSDKIHHHHHHLRNSIDLTKKIKEKAFEEGFDAVGIAKVPGSSRIKLRTASLERWLQAGHQATMEWMKSPRRKDIENMLQGVKSILAVGLNYYVDTERESKDISIARYGWGKDYHKIIEEKLKKVAKFLETERPNAKWKICVDTSAFLDKAWAEEAGIGWIGKHSNVINSEIGSWMFLGHLLSTEVLEADKPSKPICGECEKCIEACPTKAIEEPFIVNSYKCLAYHTLENRDQELPENIINKMGNWIAGCDICQDVCPWNQKHIPSTTEPDLQPSEWILHTTKQDLLSWDDAKWKESLKNSALKRIKPWMWRRNIDSISKKT
- soluble on expression in E. coli: not soluble

Sequence: MGSDKIHHHHHHMNQDGASPLSETAQPFLQVVGVHKRFTGVHALRGVSLTFERGQIYHLLGENGCGKSTLIKIISGAQPPDQGELVIEGVRHAQLSPLESLAAGIETVYQDLSLLPNMSVAENVALTAELAAHAGKLARTFDRRALARTAARALEAVGLPGSADFQATLIEQLPLATRQLVAIARAIASEAKFVIMDEPTTSLTQKEVDNLIAVLANLRAHGVTVLFVSHKLDECYAIGGEVIVLRDGQKMAQGPIAQFTKARLSELMTGRELSNERYREAGHAQDVVLELRGLTRAGQFSDVSLSLHGGEILGVTGLLDSGRNELARALAGVAPAHAGEVLLDGHAIALRTPSDAKRNRIGYVPEDRLNEGLFLDKPIRDNLITAMISSLRDRFGQIDRARAQALAQQTVKELQIATAGIDKPVQSLSGGNQQRVLIGRWLAIDPRVLILHGPTVGVDVGSRDVIYRIMQRLSQRGIGIILISDDLPELLQNCDRILMMKKGRVASEYRADALDEADLYHALLSEAA
- soluble on expression in E. coli: not soluble

Sequence: MDGAATKFFRPWESHGSYHHSLPSISPPDSPASTSASSSSSSIGANELTTKRRKCERCTCPNCKAIKHGDRGSQHTHLCSVPGCGKTYKKTSHLRAHLRKHTGDRPFVCDWFDCGKRFDRSDQLIRHKRTHTKEYRFACKFCIRQFSRSDHLQQHLTSVHNIVVVD
- soluble on expression in E. coli: not soluble

Sequence: MHHHHHHSSGRENLYFQGNAVLTWNNEILPNWETMWCSRKVRDLWWQGIPPSVRGKVWSLAIGNELNITHELFDICLARAKERWRSLSTGGSEVENEDAGFSAADREASLELIKLDISRTFPNLCIFQQGGPYHDMLHSILGAYTCYRPDVGYVQGMSFIAAVLILNLDTADAFIAFSNLLNKPCQMAFFRVDHGLMLTYFAAFEVFFEENLPKLFAHFKKNNLTPDIYLIDWIFTLYSKSLPLDLACRIWDVFCRDGEEFLFRTALGILKLFEDILTKMDFIHMAQFLTRLPEDLPAEELFASIATIQMQSRNKKWAQVLTALQKDSREMEKG
- soluble on expression in E. coli: soluble

Sequence: MGSDKIHHHHHHMSTTMQVIELNGPNRLSISQRQVPETPVDGVLLKTSAVSICSTDISHYHGNLLAEDYPVILGHEYSGIVVDVGPECPSSLQGQRLAYFGQTDFGGMAEYRALRPLFAGDLRSSPFKTGRFFKDDERAAAITLPDEISDSDAPLIEPITAVLRSILTHPPAVGNRVLVLGGGPCGAIAGAILQTLYATKSVAVLERNQARQEIARSQYANFVFGSAEELRESDDDAFDYVFDALPPLVNIEADSCPRRAAMRAAKPGSKYVLYGASQTLQQFDTWLLLAKGITLASAAFDVDHFPMYKTAFVMKTAKELLLRRIIDPGWMMTNHMSFWRPQEVIQFFAEYYTTPHLKTVIHFDQ
- soluble on expression in E. coli: not soluble

Reference: the DeepSol protein solubility set
